From US20210155689A1 (SHANGHAI PHARMAEXPLORER, published 2021)

T1: human LAG-3 on cells (HEK293-hLAG-3 stable cell line) (human, UniProt P18627 23-525)
T1 sequence: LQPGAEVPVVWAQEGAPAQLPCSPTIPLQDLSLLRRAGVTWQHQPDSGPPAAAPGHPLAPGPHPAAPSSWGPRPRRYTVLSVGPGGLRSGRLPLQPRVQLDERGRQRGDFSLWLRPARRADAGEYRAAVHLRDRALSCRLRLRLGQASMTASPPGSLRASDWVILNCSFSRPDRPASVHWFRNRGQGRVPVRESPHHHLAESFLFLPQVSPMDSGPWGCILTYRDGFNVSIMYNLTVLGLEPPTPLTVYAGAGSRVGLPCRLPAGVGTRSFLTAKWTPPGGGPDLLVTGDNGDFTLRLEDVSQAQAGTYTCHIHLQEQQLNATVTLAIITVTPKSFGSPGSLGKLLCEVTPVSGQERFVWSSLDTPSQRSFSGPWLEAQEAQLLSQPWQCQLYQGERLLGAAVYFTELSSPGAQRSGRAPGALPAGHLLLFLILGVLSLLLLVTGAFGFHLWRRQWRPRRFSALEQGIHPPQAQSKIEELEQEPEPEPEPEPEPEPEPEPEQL

B1: 405B8H3 mouse-human chimeric antibody (antibody, V domains shown)
VH: QVQLQQSGAELVRPGASVTLSCKASGYTFTDYEMHWVKQTPVHGLEWIGATDPETGNSAYNQKFKGKAIMTADKSSSTAYMELRSLTSEDSAVYYCISTGWNDWGQGTSLTVSS
VL: DIKMTQSPSSMYASLGERVTITCKASQDINSYLSWFQQKPGKSPKTLIYRADRLLDGVPSRFSGSGSGQDYSLTISSLEYGDMGIYYCLQYDEFPYTFGGGTKLEIK
notes: also called mAb103-405B8H3
B2: 409D4E10 mouse-human chimeric antibody (antibody, V domains shown)
VH: QVQLQQSGAELVRPGASVTLSCKASGNTFTDYEMHWVKQTPVHGLEWIGATDPETDNTAYNQKFKGKAILTTDKSSSTAYMELRSLTSEDSAVYYCITSGWNDWGQGTSLTVSS
VL: DIKMTQSPSSMYASLGERVTITCKASQDINSYLSWFQQKPGKSPKTLIYRANRLLDGVPSRFSGSGSGQDYSLTISSLEYEDMGIYYCLQYNEFPYTFGGGTKLEIK
notes: also called mAb112-409D4E10
B3: 409B11E12 mouse-human chimeric antibody (antibody, V domains shown)
VH: QVQLQQSGAELVRPGASVTLSCKASGYTFTDYEMHWVKQTTVHGLEWIGATDPETSYSAYNQKFKGKAILTADKSSSTAYMELRSLTSEDSAVYYCIATGWNDWGQGTSLTVSS
VL: DLKMTQSPSSMYASLGERVTITCKASQDINSYLSWFQQKPGKSPKTLIYRANRLLDGVPSRFSGSGSGQDYSLTISSLEYEDMGIYYCLQYDEFPYTFGGGTKLEIK
notes: also called mAb104-409B11E12

How the values were obtained:
[1] = molecular target: T1, human LAG-3 on cells (HEK293-hLAG-3 …); assay: cell-based or functional assay
[2] = molecular target: T1, human LAG-3 on cells (HEK293-hLAG-3 …); assay: FACS, HEK293-hLAG-3, antibody 0.000 nM
Excerpt: The pIRES plasmid with the monkey-derived full-length gene was transfected into the HEK293 cell line to construct a HEK293 stable cell line containing monkey LAG-3 (herein referred to as HEK293-cLAG-3 stable cell line). The HEK293-hLAG-3 stable cell line and HEK293-cLAG-3 stable cell line were expanded in a T-75 cell culture flask to a 90% confluence. The medium was aspirated, and the cells were washed with HBSS (Hanks' Balanced Salt Solution) 1-2 times, then treated with a enzyme-free cell dissociation fluid (Versene solution: Life technology) and the cells were collected. The cells were washed with HBSS buffer for 1-2 times. After counted, the cells were diluted with HBSS to 1-2×10⁶ cells per ml, added with 1% goat serum blocking solution, incubated on ice for 20-30 minutes, and then washed with HBSS for 2 times by centrifugation. The collected cells were suspended in the FACS buffer (HBSS+1% BSA) to 2×10⁶ cells/ml, added as 100 microliters per well to a 96-well FACS reaction plate, added with 100 microliters per well of the antibody sample to be tested, incubated on ice for 1-2 hours. The plate was washed twice with the FACS buffer by centrifugation, added with 100 microliters of fluorescent (Alexa 488)-labeled secondary antibodies per well, and incubated on ice for 0.5-1.0 hours. The plate was washed 2-3 times with FACS buffer by centrifugation, added with 100 μl fixative solution (4% Paraformaldehyde) per well to suspend the cells. 5-10 minutes later, it was washed 1-2 times with FACS buffer by centrifugation. The cells were suspended with 100 microliters of FACS buffer, FACS (FACSCalibur, BD) was used for detection and the results were analyzed.

Row | Binder | IL-2 production, SEB-dependent PBMC stimulation test, 0.0032 ug/ml, N = 1 [1] [pg/mL] | IL-2 production, SEB-dependent PBMC stimulation test, 0.0032 ug/ml, N = 2 [1] [pg/mL] | IL-2 production, SEB-dependent PBMC stimulation test, 0.016 ug/ml, N = 1 [1] [pg/mL] | IL-2 production, SEB-dependent PBMC stimulation test, 0.016 ug/ml, N = 2 [1] [pg/mL] | IL-2 production, SEB-dependent PBMC stimulation test, 0.08 ug/ml, N = 1 [1] [pg/mL] | IL-2 production, SEB-dependent PBMC stimulation test, 0.08 ug/ml, N = 2 [1] [pg/mL] | IL-2 production, SEB-dependent PBMC stimulation test, 0.4 ug/ml, N = 1 [1] [pg/mL] | IL-2 production, SEB-dependent PBMC stimulation test, 0.4 ug/ml, N = 2 [1] [pg/mL] | IL-2 production, SEB-dependent PBMC stimulation test, 2 ug/ml, N = 1 [1] [pg/mL] | IL-2 production, SEB-dependent PBMC stimulation test, 2 ug/ml, N = 2 [1] [pg/mL] | IL-2 production, SEB-dependent PBMC stimulation test, 10 ug/ml, N = 1 [1] [pg/mL] | IL-2 production, SEB-dependent PBMC stimulation test, 10 ug/ml, N = 2 [1] [pg/mL] | Mean fluorescence intensity [2]
1 | B1 | 2000 | 1600 | 1880 | 1770 | 1800 | 1840 | 2790 | 3240 | 2700 | 2850 | 3280 | 3160 | 2.8
2 | B2 | 1660 | 1240 | 1250 | 1450 | 1630 | 1420 | 2170 | 2160 | 2770 | 1940 | 2740 | 2100 | 3
3 | B3 | 1340 | 1190 | 1720 | 1230 | 1550 | 1530 | 2820 | 1990 | 2540 | 1920 | 3140 | 3010 | 2.8
